Target: RecA (UniProt P0A7G6)
Test: pulldown

RecA, sequence (P0A7G6 2-353): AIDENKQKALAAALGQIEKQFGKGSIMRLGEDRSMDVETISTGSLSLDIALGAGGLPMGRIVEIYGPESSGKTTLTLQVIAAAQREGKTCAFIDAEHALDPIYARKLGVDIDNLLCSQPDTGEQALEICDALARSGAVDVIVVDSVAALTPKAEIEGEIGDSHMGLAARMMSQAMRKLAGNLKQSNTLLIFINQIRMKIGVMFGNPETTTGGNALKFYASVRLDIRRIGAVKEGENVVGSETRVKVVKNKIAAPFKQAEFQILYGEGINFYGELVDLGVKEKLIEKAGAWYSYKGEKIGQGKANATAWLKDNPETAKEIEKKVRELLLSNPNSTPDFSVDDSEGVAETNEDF

Row | Substance | activity (bio-14-dATP incorporated, capture of 32P lambda DNA target, 3.7% without RecA, ATPgammaS, Mg acetate) | activity (capture of 32P lambda target with heterologous non-biotinylated probe, 3.1% without RecA (background))
1 | lambda 1000-mer (6631-7630) nick-translated probe | 45.9% | –
2 | phiX174 RFI nick-translated probe | – | 3.6%

Reference: patent US5670316
